B1: NRC3_wobSeed144_DR5_T19G_o1 (dsDNA)
DNA 1: GCTCGAGTAGGTTACCAAGGGGGCATTCAGCTTTCTGCGATTGACAGCGTAGAATGAAGG
DNA 2: CCTTCATTCTACGCTGTCAATCGCAGAAAGCTGAATGCCCCCTTGGTAACCTACTCGAGC
B2: NRC3_wobSeed90_DR3_A28C_o1 (dsDNA)
DNA 1: GCCATACAGGGTCAGCTAGGCCAGAGTCGGGACGGCGCGATTGACAGCGTAGAATGAAGG
DNA 2: CCTTCATTCTACGCTGTCAATCGCGCCGTCCCGACTCTGGCCTAGCTGACCCTGTATGGC
B3: NRC3_wobSeed110_DR4_C7A_o1 (dsDNA)
DNA 1: GCTCTGATAGGTCAACGATGGTCAGCTAATCTGCTAGCGATTGACAGCGTAGAATGAAGG
DNA 2: CCTTCATTCTACGCTGTCAATCGCTAGCAGATTAGCTGACCATCGTTGACCTATCAGAGC
B4: NRC3_wobSeed81_DR3_C22G_o1 (dsDNA)
DNA 1: GCATCTCTAGGTAACCAAGTTGAGTGAATGCCGAACGCGATTGACAGCGTAGAATGAAGG
DNA 2: CCTTCATTCTACGCTGTCAATCGCGTTCGGCATTCACTCAACTTGGTTACCTAGAGATGC
B5: NRC3_wobSeed81_DR3_C22A_o1 (dsDNA)
DNA 1: B4 DNA 1 with G22A
DNA 2: B4 DNA 2 with C39T
B6: NRC3_wobSeed125_DR5_G21T_o1 (dsDNA)
DNA 1: GCCCTTACGGGTCACTGACATGTTATAGCATTTGGAGCGATTGACAGCGTAGAATGAAGG
DNA 2: CCTTCATTCTACGCTGTCAATCGCTCCAAATGCTATAACATGTCAGTGACCCGTAAGGGC
B7: NRC3_wobSeed125_DR5_T6C_o1 (dsDNA)
DNA 1: B6 DNA 1 with T6C, T21G
DNA 2: B6 DNA 2 with A40C, A55G
B8: NRC3_wobSeed4_DR0_T22C_o1 (dsDNA)
DNA 1: GCCCTACTGGGCCAAGGTCATCGATCAGTCAAAGCAGCGATTGACAGCGTAGAATGAAGG
DNA 2: CCTTCATTCTACGCTGTCAATCGCTGCTTTGACTGATCGATGACCTTGGCCCAGTAGGGC
B9: NRC3_wobSeed137_DR5_A14T_o1 (dsDNA)
DNA 1: GCATATGTAGGTTTCATCCGGGTCATTCAGGCTATGGCGATTGACAGCGTAGAATGAAGG
DNA 2: CCTTCATTCTACGCTGTCAATCGCCATAGCCTGAATGACCCGGATGAAACCTACATATGC
B10: NRC3_wobSeed27_DR1_G7C_o1 (dsDNA)
DNA 1: GCACTCCGAGGACAAAGGTCAGAGCTACGCCAGTGAGCGATTGACAGCGTAGAATGAAGG
DNA 2: CCTTCATTCTACGCTGTCAATCGCTCACTGGCGTAGCTCTGACCTTTGTCCTCGGAGTGC
B11: NRC3_wobSeed122_DR5_C28A_o1 (dsDNA)
DNA 1: GCGCTAGTTGGTCAGTAAAAGGTCACAAACCGGTCGGCGATTGACAGCGTAGAATGAAGG
DNA 2: CCTTCATTCTACGCTGTCAATCGCCGACCGGTTTGTGACCTTTTACTGACCAACTAGCGC
B12: NRC3_wobSeed142_DR5_A5G_o1 (dsDNA)
DNA 1: GCATGCCAAGGTGATCGTGAGGTCGTTGATACTAACGCGATTGACAGCGTAGAATGAAGG
DNA 2: CCTTCATTCTACGCTGTCAATCGCGTTAGTATCAACGACCTCACGATCACCTTGGCATGC
B13: NRC3_wobSeed142_DR5_G21T_o1 (dsDNA)
DNA 1: B12 DNA 1 with G5A, G21T
DNA 2: B12 DNA 2 with C40A, C56T
B14: NRC3_wobSeed46_DR1_A15T_o1 (dsDNA)
DNA 1: GCTTACCAAGGTGATAGGTCGTTGATGCACGCCTTGGCGATTGACAGCGTAGAATGAAGG
DNA 2: CCTTCATTCTACGCTGTCAATCGCCAAGGCGTGCATCAACGACCTATCACCTTGGTAAGC
B15: NRC3_wobSeed6_DR0_T22A_o1 (dsDNA)
DNA 1: GCCCTAGCAGGCCAGGGTCACACAAGCATTTCGCTTGCGATTGACAGCGTAGAATGAAGG
DNA 2: CCTTCATTCTACGCTGTCAATCGCAAGCGAAATGCTTGTGTGACCCTGGCCTGCTAGGGC
B16: NRC3_wobSeed114_DR4_G10T_o1 (dsDNA)
DNA 1: GCAATACAGTGTCATCGTAGGCCAGAGTACGCACAGGCGATTGACAGCGTAGAATGAAGG
DNA 2: CCTTCATTCTACGCTGTCAATCGCCTGTGCGTACTCTGGCCTACGATGACACTGTATTGC
B17: NRC3_wobSeed5_DR0_C24G_o1 (dsDNA)
DNA 1: GCCCTTACGGGTCAAGGTTATAGGACGGGTGGTACGGCGATTGACAGCGTAGAATGAAGG
DNA 2: CCTTCATTCTACGCTGTCAATCGCCGTACCACCCGTCCTATAACCTTGACCCGTAAGGGC
B18: NRC3_wobSeed5_DR0_T6A_o1 (dsDNA)
DNA 1: B17 DNA 1 with T6A, G24C
DNA 2: B17 DNA 2 with C37G, A55T
B19: NRC3_wobSeed88_DR3_T25A_o1 (dsDNA)
DNA 1: GCTAGCCTAGGTCATGCGGGCCAGAATAGTGTCGGCGCGATTGACAGCGTAGAATGAAGG
DNA 2: CCTTCATTCTACGCTGTCAATCGCGCCGACACTATTCTGGCCCGCATGACCTAGGCTAGC
B20: NRC3_wobSeed88_DR3_A28G_o1 (dsDNA)
DNA 1: B19 DNA 1 with A25T, A28G
DNA 2: B19 DNA 2 with T33C, T36A
B21: NRC3_wobSeed82_DR3_T21G_o1 (dsDNA)
DNA 1: GCATCGAAAGGTCGACGAGGGGAGTATACACCGTTTGCGATTGACAGCGTAGAATGAAGG
DNA 2: CCTTCATTCTACGCTGTCAATCGCAAACGGTGTATACTCCCCTCGTCGACCTTTCGATGC
B22: NRC3_wobSeed99_DR4_T5C_o1 (dsDNA)
DNA 1: GCTCCCGGAGGACACGAAAGGTCAGAGCTCGACATCGCGATTGACAGCGTAGAATGAAGG
DNA 2: CCTTCATTCTACGCTGTCAATCGCGATGTCGAGCTCTGACCTTTCGTGTCCTCCGGGAGC
B23: NRC3_wobSeed100_DR4_A14C_o1 (dsDNA)
DNA 1: GCCCTACTGGGCCCCGAAAGGTCATTGATTCAGTGAGCGATTGACAGCGTAGAATGAAGG
DNA 2: CCTTCATTCTACGCTGTCAATCGCTCACTGAATCAATGACCTTTCGGGGCCCAGTAGGGC
B24: NRC3_wobSeed74_DR3_A14C_o1 (dsDNA)
DNA 1: GCTCTAGTTGGTCCCGGAGGTCACACACGACGGGTAGCGATTGACAGCGTAGAATGAAGG
DNA 2: CCTTCATTCTACGCTGTCAATCGCTACCCGTCGTGTGTGACCTCCGGGACCAACTAGAGC
B25: NRC3_wobSeed74_DR3_G17T_o1 (dsDNA)
DNA 1: B24 DNA 1 with C14A, G17T
DNA 2: B24 DNA 2 with C44A, G47T
B26: NRC3_wobSeed74_DR3_G20C_o1 (dsDNA)
DNA 1: B24 DNA 1 with C14A, G20C
DNA 2: B24 DNA 2 with C41G, G47T
B27: NRC3_wobSeed119_DR4_G27A_o1 (dsDNA)
DNA 1: GCGGAACGAGGGCATTCGAGTTGATAACATGGCGATGCGATTGACAGCGTAGAATGAAGG
DNA 2: CCTTCATTCTACGCTGTCAATCGCATCGCCATGTTATCAACTCGAATGCCCTCGTTCCGC
B28: NRC3_wobSeed69_DR2_C6G_o1 (dsDNA)
DNA 1: GCAGTGAAAGTTCACTAGGTAACGTAAGATTCAGCTGCGATTGACAGCGTAGAATGAAGG
DNA 2: CCTTCATTCTACGCTGTCAATCGCAGCTGAATCTTACGTTACCTAGTGAACTTTCACTGC
B29: NRC3_wobSeed98_DR4_T12C_o1 (dsDNA)
DNA 1: GCACTAGTTGGCCAGCTGAGGTCACACACAATTCGGGCGATTGACAGCGTAGAATGAAGG
DNA 2: CCTTCATTCTACGCTGTCAATCGCCCGAATTGTGTGTGACCTCAGCTGGCCAACTAGTGC
B30: NRC3_wobSeed61_DR2_G10T_o1 (dsDNA)
DNA 1: GCCGTCCAATGTCAGCAGGTCAGTGAAAGCGACGTGGCGATTGACAGCGTAGAATGAAGG
DNA 2: CCTTCATTCTACGCTGTCAATCGCCACGTCGCTTTCACTGACCTGCTGACATTGGACGGC
B31: NRC3_wobSeed17_DR0_T18C_o1 (dsDNA)
DNA 1: GCATATGTAGGTTAGGGCCATTCAGAAAGTAGGGAAGCGATTGACAGCGTAGAATGAAGG
DNA 2: CCTTCATTCTACGCTGTCAATCGCTTCCCTACTTTCTGAATGGCCCTAACCTACATATGC
B32: NRC3_wobSeed17_DR0_T18A_o1 (dsDNA)
DNA 1: B31 DNA 1 with C18A
DNA 2: B31 DNA 2 with G43T

Changes are numbered by the printed parent chain.

Sequence of VDR:RXRa (P11473 whole entry, chain 1 of 2): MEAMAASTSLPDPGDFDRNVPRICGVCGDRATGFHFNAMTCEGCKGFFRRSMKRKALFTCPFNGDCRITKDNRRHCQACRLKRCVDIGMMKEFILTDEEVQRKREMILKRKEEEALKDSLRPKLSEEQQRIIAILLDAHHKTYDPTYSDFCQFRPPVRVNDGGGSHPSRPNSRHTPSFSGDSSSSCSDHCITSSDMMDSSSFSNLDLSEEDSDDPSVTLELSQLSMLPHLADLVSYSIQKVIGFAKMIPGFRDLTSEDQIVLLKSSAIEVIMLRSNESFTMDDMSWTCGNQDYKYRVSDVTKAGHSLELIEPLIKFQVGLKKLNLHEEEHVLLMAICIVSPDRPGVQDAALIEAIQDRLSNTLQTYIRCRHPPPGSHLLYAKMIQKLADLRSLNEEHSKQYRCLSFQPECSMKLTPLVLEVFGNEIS
Sequence of VDR:RXRa (P19793 whole entry, chain 2 of 2): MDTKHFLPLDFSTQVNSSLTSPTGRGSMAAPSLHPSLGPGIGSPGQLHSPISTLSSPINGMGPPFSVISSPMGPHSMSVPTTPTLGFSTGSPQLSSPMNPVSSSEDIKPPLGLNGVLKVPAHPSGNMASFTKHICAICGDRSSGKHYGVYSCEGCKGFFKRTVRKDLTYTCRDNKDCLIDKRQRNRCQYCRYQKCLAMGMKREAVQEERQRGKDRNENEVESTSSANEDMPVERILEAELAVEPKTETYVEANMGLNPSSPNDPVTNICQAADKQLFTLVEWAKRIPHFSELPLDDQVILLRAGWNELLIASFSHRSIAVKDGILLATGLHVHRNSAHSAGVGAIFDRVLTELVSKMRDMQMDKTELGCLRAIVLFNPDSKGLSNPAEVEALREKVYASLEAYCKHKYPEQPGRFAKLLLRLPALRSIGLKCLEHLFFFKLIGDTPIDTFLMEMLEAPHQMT

The target in this series is VDR:RXRa (Homo sapiens, UniProt P11473;P19793 full;full). Put plainly: no ligand; PBM; 270 nM : 90 nM RXRa; PBS pH 7.4, 2% milk, 0.02% Triton X-100, 1 mM DTT, BSA, 0.4 mg/ml salmon testes DNA. The note with it: tags: His kept;His cleaved; copies: 1;1; label: surface-attached array probe. Summed up:
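Random background probes are the reference for binding z-scores. These scores derive from regression-normalized fluorescence on custom Agilent 4×180K protein-binding microarrays incubated 1 h with ligand-free nuclear receptor dimers. Binding was detected with antibodies against each partner (one per run).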
Take B1: the binding signal was 3.47 PBM z-score against 500 random probes.
Consider B2, for which the binding signal was 3.58 PBM z-score against 500 random probes.
Regarding B3, the binding signal is 3.1 PBM z-score against 500 random probes.
With B4, the binding signal is 0.49 PBM z-score against 500 random probes.
As to B5, the binding signal is 0.37 PBM z-score against 500 random probes.
The figure for B6 is 3.4 PBM z-score against 500 random probes.
Consider B7, for which the binding signal was 3.38 PBM z-score against 500 random probes.
With B8, the binding signal is 3.17 PBM z-score against 500 random probes.
As for B9, the binding signal was 3.52 PBM z-score against 500 random probes.
The figure for B10 is 3.7 PBM z-score against 500 random probes; for B11 it is 3.68 PBM z-score against 500 random probes.
The figure for B12 is 3.08 PBM z-score against 500 random probes.
On to B13, for which the binding signal is 0.3 PBM z-score against 500 random probes.
For the molecule B14, the binding signal was 0.48 PBM z-score against 500 random probes.
With B15, the binding signal is 3.03 PBM z-score against 500 random probes.
For B16, the binding signal is 0.5 PBM z-score against 500 random probes.
For the molecule B17, the binding signal is 3.5 PBM z-score against 500 random probes.
The figure for B18 is 3.06 PBM z-score against 500 random probes; for B19 it is 3.12 PBM z-score against 500 random probes.
For the molecule B20, the binding signal was 3 PBM z-score against 500 random probes.
The value for B21 was 3.65 PBM z-score against 500 random probes; that for B22 was 3.26 PBM z-score against 500 random probes.
The value for B23 was 3.44 PBM z-score against 500 random probes; that for B24 was 3.63 PBM z-score against 500 random probes; that for B25 was 3.15 PBM z-score against 500 random probes.
The value for B26 was 0.37 PBM z-score against 500 random probes; that for B27 was 3.42 PBM z-score against 500 random probes; that for B28 was 3.33 PBM z-score against 500 random probes.
Take B29: the binding signal is 3.6 PBM z-score against 500 random probes.
As for B30, the binding signal was 0.44 PBM z-score against 500 random probes.
For B31, the binding signal was 0.42 PBM z-score against 500 random probes.
Turning to B32, the binding signal is 0.41 PBM z-score against 500 random probes.

Values taken from paper PMC6555819, “Comprehensive study of nuclear receptor DNA binding provides a revised framework for understanding receptor specificity”.
